Read-outs that look alike come from different tables or passages of the source. One block for each molecule: values may come before it.
Legend:
PAN = target: T1, PAN (Methanocaldococcus jannaschii, UniProt Q58576); experiment: α-32P-ATP binding, rapid spin gel filtration
T1 sequence (Q58576 1-430): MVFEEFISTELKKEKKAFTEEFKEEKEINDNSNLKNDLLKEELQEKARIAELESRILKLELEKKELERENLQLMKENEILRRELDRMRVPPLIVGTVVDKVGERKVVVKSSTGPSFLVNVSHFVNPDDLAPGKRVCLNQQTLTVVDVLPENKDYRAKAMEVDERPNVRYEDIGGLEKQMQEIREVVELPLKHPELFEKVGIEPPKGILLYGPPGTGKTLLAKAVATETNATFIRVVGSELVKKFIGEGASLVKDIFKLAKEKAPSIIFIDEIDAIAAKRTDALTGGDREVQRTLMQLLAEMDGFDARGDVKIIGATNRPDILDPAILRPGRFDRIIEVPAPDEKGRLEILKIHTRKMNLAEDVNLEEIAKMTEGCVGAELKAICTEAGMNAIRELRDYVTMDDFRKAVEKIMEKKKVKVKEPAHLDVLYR

PAN ATPase complex [1] = target: PAN ATPase complex (UniProt Q58576); experiment: fluorescence polarisation
PAN ATPase complex [2] = target: PAN ATPase complex (UniProt Q58576); experiment: fluorescence polarisation; remark: listed apart in the source
[3] = substrate: Nc1ncnc2c1ncn2[C@@H]1O[C@H](COP(=O)(O)OP(=O)(O)OP(=O)(O)O)[C@@H](O)[C@H]1O; experiment: ATPase, inorganic phosphate release; type: biochemical, Methanocaldococcus jannaschii; conditions: 45 °C

Molecule: Nc1ncnc2c1ncn2[C@@H]1O[C@H](COP(=O)(O)OP(=O)(O)OP(=O)(O)O)[C@@H](O)[C@H]1O [ATP]
Kd (PAN): 13 µM

change in polarization (PAN ATPase complex [1]): 7 mP
change in polarization (PAN ATPase complex [2]): 56 mP
Molecule: FITC-casein (from UniProt P02666 16-224) (natural protein)

B1: PAN (Methanocaldococcus jannaschii DSM 2661) (protein)
chain: T1 sequence (Q58576 1-430)
Km [3]: 263 ± 18 µM

Reference: paper PMC3063399 (Cell, 2011)
